Target: latent myostatin (human) (UniProt O14793)
Assay: SEC-MALS; SRT SEC-500 column, 20 mM phosphate, 200 mM NaCl pH 6.8; latent myostatin alone; 94 kDa observed, 82 kDa calculated

Chain of latent myostatin (O14793 whole entry, looked up): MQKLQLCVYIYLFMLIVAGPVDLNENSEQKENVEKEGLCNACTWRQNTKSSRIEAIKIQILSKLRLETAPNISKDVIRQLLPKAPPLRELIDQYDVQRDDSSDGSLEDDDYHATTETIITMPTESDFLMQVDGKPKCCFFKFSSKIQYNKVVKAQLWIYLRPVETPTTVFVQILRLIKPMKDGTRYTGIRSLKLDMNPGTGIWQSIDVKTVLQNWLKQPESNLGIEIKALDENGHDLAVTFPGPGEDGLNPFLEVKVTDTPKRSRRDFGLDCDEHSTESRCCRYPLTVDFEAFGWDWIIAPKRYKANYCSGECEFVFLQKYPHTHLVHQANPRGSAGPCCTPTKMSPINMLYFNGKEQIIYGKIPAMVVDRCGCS

Question: With “latent myostatin (from UniProt O14793 267-375) (complex)” as the substance, how does the stoichiometry N read?
Answer: 2

Reference: publication PMC7170532
